Laboratory results as given in publication PMC9980222.

Experiments:
[1] = biological target: B41 SOSIP.664-His trimer (HIV-1 isolate B41 (Clade B)); assay: negative-stain electron microscopy
[2] = biological target: B41 SOSIP.664-His trimer (HIV-1 isolate B41 (Clade B)); assay: native gel or EMSA
[3] = biological target: BG505 SOSIP.664-His trimer (HIV-1 isolate BG505 (Clade A)); assay: SPR
[4] = biological target: BG505 SOSIP.664-His trimer (HIV-1 isolate BG505 (Clade A))

B41 SOSIP.664-His trimer (complex)
stoichiometry N [1]: 3
stoichiometry N [2]: 3

PGT151 Fab
KD1 (site 1, heterogeneous-ligand model) [3]: < 0.1 nM
KD2 (site 2, heterogeneous-ligand model) [3]: 27 nM
Kd [3]: 2 nM
Sm1 (stoichiometry of site 1, heterogeneous-ligand model) (Fab molecules per trimer) [3]: 1.2
Sm1+Sm2 (cumulative stoichiometry, heterogeneous-ligand model) (Fab molecules per trimer) [3]: 1.9
Sm2 (stoichiometry of site 2, heterogeneous-ligand model) (Fab molecules per trimer) [3]: 0.7
koff [3]: 0.00018 s⁻¹
koff1 (site 1, heterogeneous-ligand model) [3]: < 1e-05 s⁻¹
koff2 (site 2, heterogeneous-ligand model) [3]: 0.00076 s⁻¹
kon [3]: 87000 M⁻¹ s⁻¹
kon1 (site 1, heterogeneous-ligand model) [3]: 140000 M⁻¹ s⁻¹
kon2 (site 2, heterogeneous-ligand model) [3]: 28000 M⁻¹ s⁻¹
stoichiometry N (Fab molecules per trimer) [3]: 1.9

PGT151 IgG (antibody)
IC50 of neutralization of BG505 Env-pseudotyped virus, TZM-bl assay [4]: 0.043 µg/mL
